Assay results from the nanobody polyreactivity screen of Harvey et al. (2022).

experiment: yeast display, Sf9 membrane polyspecificity reagent, FACS + sequencing; frameworks hold sequencing errors
Method in brief: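 Nanobodies came from a synthetic yeast display library in Saccharomyces cerevisiae BJ5465, induced with galactose for 36–48 hours and stained for 1 hour at 4 °C with 10% biotinylated, detergent-solubilized Sf9 membrane reagent. Cells were enriched on streptavidin microbeads and then FACS-sorted, with low and high (top ~1%) gates set on anti-HA fluorescence for expression and streptavidin fluorescence for reagent binding. Each polyreactivity label reflects the gate a clone came from. Genes were amplified by colony PCR, sequenced by MiSeq 2 × 250 and filtered by CDR length.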

Question: For “QVQLVESGGGLVQAGGSLRLSCAASGSNFDLNAMGLYRQAPGKERELVAAISSGGGTYYADSVKGRFTIARDNAKNTVYLQMNSLKPEDTAVYYCNRVTRWTYNYWGQGTQVTVSS”, which “polyreactivity (PSR sort gate)” value is on record?
Answer: high polyreactivity

Question: For “QVQLVESGGGLVQAGGSLRLSCAASGSNFFSNAMGWYRQAPGKERELVAAITSSGASTYYADSVKGRFTISRDNAKNTVYLQMNSLKPEDTAVYYCAVVGGGKRYGYWGQGTQVTVSS”, which “polyreactivity (PSR sort gate)” value is on record?
Answer: high polyreactivity

Question: For “QVQLVESGGGLVQAGGSLRLSCAASGSNFGSYTMGWSRQAPGKERELVAAISLGGGSTYYADSVKGRFTISRDNAKNTVYLQMNSLKPEDTAVYYCAAGFTDPYDYWGQGTQVTVSS”, which “polyreactivity (PSR sort gate)” value is on record?
Answer: low polyreactivity

Question: Which “polyreactivity (PSR sort gate)” value does the source give for “QVQLVESGGGLVQAGGSLRLSCAASGSNFGYYPMGWYRQATGKERELVAAISWSDGSTYYADSVKGRFTISRDNAKNTVYLQMNSRKPEDTAVYYCAARFTPYITSDDGHYDYWGQGTQVTVSS” here?
Answer: low polyreactivity

Question: Which “polyreactivity (PSR sort gate)” value does the source give for “QVQLVESGGGLVQAGGSLRLSCAASGSNFGYYTLGWYRQAPGKERELVAAIRYGDGSTNYADSVKGRFTISRDNAKNTVYLKMNSLKPEDTAVYYCATRSQRGYRGYNYWGQGTQVTLSS” here?
Answer: high polyreactivity

Question: For “QVQLVESGGGLVQAGGSLRLSCAASGSNFIPNAMGWYRQAPGKERELVAAIRSGRSTYYADSVKGRITISRDNANNTVYLQMNSLQPEATAVYYCAADTYPYYYYLARYYYWGQCTQVTVSS”, which “polyreactivity (PSR sort gate)” value is on record?
Answer: low polyreactivity

Question: With “QVQLVESGGGLVQAGGSLRLSCAASGSNFKTYAMGLYRQAPGKERELVAAISSGGSTYYADSVKGRFTISRDNAKITVYLQMNSLKPEDTAVYYCAADPWGAFVSFASYYYWGQATQVTVSS” as the sequence, how does the “polyreactivity (PSR sort gate)” value read?
Answer: low polyreactivity

Question: Which “polyreactivity (PSR sort gate)” value does the source give for “QVQLVESGGGLVQAGGSLRLSCAASGSNFRDNGMGWYRQAPGKERELVAAINSGDSTYYADSVKGRFTISRDNAKNTVYLQMNSLKPEDTAVYYCNADDRRALSQRQYDWYDYWGQGTQVTVSS” here?
Answer: low polyreactivity

Question: For “QVQLVESGGGLVQAGGSLRLSCAASGSNFRFYVMGWYRQAPGKERELVAAISIGGSTNYADSVKGRFTISRDNAKNSVYLQMNSLKPEDTAVYYCAADYWYGAGLPHGTEFDYWGQGTQVTVSS”, which “polyreactivity (PSR sort gate)” value is on record?
Answer: low polyreactivity

Question: Which “polyreactivity (PSR sort gate)” value does the source give for “QVQLVESGGGLVQAGGSLRLSCAASGSNFRGYTMGWYRQAPGKERELVANISTSVGRTYYADSVKGRFTISRDNAKNTVFLQMNSLKPEDTAVYYCNARRAYRWKPDTGSAGMDYWGQGTQVTVSS” here?
Answer: high polyreactivity

Question: With “QVQLVESGGGLVQAGGSLRLSCAASGSNFRRNAMGWYRQAPGKERELVAAINSRGGSTYYADSVKGRFTISRDNAKNTVYLQMNSLKPEDTAVFYCATARFLRYDRYDDYWGQGTQVTVSS” as the sequence, how does the “polyreactivity (PSR sort gate)” value read?
Answer: low polyreactivity

Question: Which “polyreactivity (PSR sort gate)” value does the source give for “QVQLVESGGGLVQAGGSLRLSCAASGSNFSYNAMGWYRQAPGKERELVATITTGGRTSYADSVKGRFTISRDNAKNTVYLQMNSLKPEDTAVYYCAAVGRFSSRPRVVYYGYDYWGQGTQVTVSS” here?
Answer: low polyreactivity

Question: With “QVQLVESGGGLVQAGGSLRLSCAASGSNFTANAMGWYRQAPGKERELVAAISRSGGRTYYADSVKGRFTISRDNAKNTVYLQMNSLKPEDTAVYYCNVGRFNTSGYDYWGQGTQVTVSS” as the sequence, how does the “polyreactivity (PSR sort gate)” value read?
Answer: high polyreactivity

Question: Which “polyreactivity (PSR sort gate)” value does the source give for “QVQLVESGGGLVQAGGSLRLSCAASGSNFVIYAMGWYRQAPGKERELVAAIRFSTGSTYYADSVKVRFTNSRDYAKNTVYLQMNSLKPEDTAVYYCAAATWQWPWYDYWGQGTQVTVSS” here?
Answer: high polyreactivity

Question: For “QVQLVESGGGLVQAGGSLRLSCAASGSNFYFYAMGWYIQAPGKERELVADITWSGGSTYYADSVKGRFTISRDNAKNTVYLQMNSLKREDTAVYYCATDSWFGLEYWGQGTQVTVSS”, which “polyreactivity (PSR sort gate)” value is on record?
Answer: high polyreactivity

Question: For “QVQLVESGGGLVQAGGSLRLSCAASGSNFYGNAMGWYRQAPGKERELVAAISRSGGRSYYADSVKGRFTISRDNAKNTVYLHMNSLKPEATAVYYCAARQYQATLQYGYYPGYGYWGQGTQVTVSS”, which “polyreactivity (PSR sort gate)” value is on record?
Answer: high polyreactivity

Question: Which “polyreactivity (PSR sort gate)” value does the source give for “QVQLVESGGGLVQAGGSLRLSCAASGSNFYGYAMGWYRQAPGKERELVAAISSGGRTKYADSVKGRFTISRDNAKNTVYLQMNSLKPEDTAVYYCNVSYLVDRWKFGWSMDYWGQGNQVTVSS” here?
Answer: low polyreactivity

Question: With “QVQLVESGGGLVQAGGSLRLSCAASGSNIGLNAMGWSRQAPGKEREWVAAITRISGRTRYADSVKRRFTISRDNAKNTVSLQMNSLKPEDTAVYYCDARFQSTNGHKYYYWGQGTQVTVSS” as the sequence, how does the “polyreactivity (PSR sort gate)” value read?
Answer: high polyreactivity

Question: With “QVQLVESGGGLVQAGGSLRLSCAASGSNLTFYAMGWYRQAPGKERELVAAITWRGGSTYYADSVKGRFTISRDNAKNTVYLQMNSLKPEDTAVYYCAAEQVGYYLNWRDYWGQGTQVTVSS” as the sequence, how does the “polyreactivity (PSR sort gate)” value read?
Answer: high polyreactivity

Question: With “QVQLVESGGGLVQAGGSLRLSCAASGSNLVHYAIGWYRQAPGKERELVAASSRGGSTNYADSVKGRFTISRDNAKNTVYLQMNSLKPEDTAVYYCAARRPWGEYYWGQGTQVTVSS” as the sequence, how does the “polyreactivity (PSR sort gate)” value read?
Answer: low polyreactivity

Question: With “QVQLVESGGGLVQAGGSLRLSCAASGSPFDYNAMGWYRPAPGKERELVAASDVSGDNTYYADSVKGRFTISRDNAKNTVYLQMNSLKPEETAVYYCNADDYWRGTSDYDYWGQGTQVTVSS” as the sequence, how does the “polyreactivity (PSR sort gate)” value read?
Answer: low polyreactivity

Question: For “QVQLVESGGGLVQAGGSLRLSCAASGSPFGDSAMGWYRQAPGKERELVAAISVYGASTYYADSVKGRFTISRDNAKNTVYLHMNSLKPEDTEVYYCAATYDTIGDSWGQGTQVTVSS”, which “polyreactivity (PSR sort gate)” value is on record?
Answer: low polyreactivity

Question: For “QVQLVESGGGLVQAGGSLRLSCAASGSPFGSNAMGWYRQAPGKERELVAAISYGGDRTYYADSVKGRFTISRDNAKNTVYLQMISLKPEDTALYYCNARIYKGYNYWGQGTQVTVSS”, which “polyreactivity (PSR sort gate)” value is on record?
Answer: high polyreactivity

Question: For “QVQLVESGGGLVQAGGSLRLSCAASGSPFRRYAMGWYRQAPGTERELVAAISWRGGSTRYADSVKGRFTLSRDNAKNTVYLQMNSLKPEDTAVYYCAALGSYGNPPSYNYWGQGTQVTVSS”, which “polyreactivity (PSR sort gate)” value is on record?
Answer: high polyreactivity

Question: Which “polyreactivity (PSR sort gate)” value does the source give for “QVQLVESGGGLVQAGGSLRLSCAASGSPFSVYAMGWYRQAPGKERELVAAISWTVGSTYYADSVKGRFTISRDTAKNTVYLQMNSLIPEDTAVYYCAADIYWHYDYWGQGTQVTVSS” here?
Answer: high polyreactivity

Question: Which “polyreactivity (PSR sort gate)” value does the source give for “QVQLVESGGGLVQAGGSLRLSCAASGSSFDDKAMGWYRQAPGKERELVASITYRGGSTYYADSVKGRFTISRDHAKNTVNLHIKSLKPEVTAVYYCDKGHYFKYDYWGQGTQVTVSS” here?
Answer: low polyreactivity

Question: With “QVQLVESGGGLVQAGGSLRLSCAASGSSFDWNAMGWYRQAPGKERELVASITGSGGGTNYADSVKGRFTISRDNAKNTVYLQMNSLKPEDTAVYYCNADGLNFDGHEYWGQGTQVTVSS” as the sequence, how does the “polyreactivity (PSR sort gate)” value read?
Answer: low polyreactivity

Question: For “QVQLVESGGGLVQAGGSLRLSCAASGSSFDWYVMGWYRQAPGKERELVAVISRSGGSTYYADSVKGRFTISRDNAKITVYLQMNSLTPEDTAVYSCGADSRSYYRDVDYWGQGTQVTVSS”, which “polyreactivity (PSR sort gate)” value is on record?
Answer: low polyreactivity

Question: With “QVQLVESGGGLVQAGGSLRLSCAASGSSFISNTMGWYRQAPGKERELVAAISSGGDTSYADSVKGRFTISRDNAKNTVYLQMNILKPEDTAVYYCNVDTSATSYSSEYDYWGQGTQVTVSS” as the sequence, how does the “polyreactivity (PSR sort gate)” value read?
Answer: low polyreactivity

Question: For “QVQLVESGGGLVQAGGSLRLSCAASGSSFLSNTMGWYRQAPGKECELVAAITSGGDTSYADSVKGRFTISRDNAKNTVYLHMKILKADDTAVYYCNVDTSATCYSSEYDYWGQGTQVSVSS”, which “polyreactivity (PSR sort gate)” value is on record?
Answer: low polyreactivity
